Data on 1 molecule can be found in article PMC10591882 (Cell reports, 2023).

This test deals with T1, TBEV envelope protein domain III (EDIII) (Tick-borne encephalitis virus, Western …).
T1 chain: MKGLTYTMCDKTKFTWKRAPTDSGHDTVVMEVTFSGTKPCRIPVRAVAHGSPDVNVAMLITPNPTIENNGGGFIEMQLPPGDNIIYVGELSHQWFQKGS
As to the kind of experiment: cell-based or functional assay.

B1: human monoclonal antibody T025 (antibody, V domains shown)
VH: QVQLVESGGGVVQPGRSLRLSCAASGFTFSNYGMHWVRQAPGKGLDWVAVISYDAISKSYADSVEGRFTISRDNSKNTLYLQMNSLRAEDSAVYYCAKSPTAIDPPFDYWGQGTLVTVSS
VL: EIVMTQSPATLSVSPGERATLSCWASQSVSSNLAWYQQKPGQAPRLLIYGASTRATGIPARFSASGSGTEFTLTISSLQSEDFAVYYCQQYNNWPPRFGQGTKVEIK
As to B1, the “IC50 of neutralisation of TBEV-Hypr (virus neutralization test on PS cells)” value was 0.0293 µg/mL.
